Results reported in IntAct's records for PubMed 17721515.

B1: Focal adhesion kinase 1 (Gallus gallus (Chicken)), Q00944 (parent)
chain: MAAAYLDPNLNHTPSSSAKTHLGTGMERSPGAMERVLKVFHYFENSSEPTTWASIIRHGDATDVRGIIQKIVDCHKVKNVACYGLRLSHLQSEEVHWLHLDMGVSNVREKFELAHPPEEWKYELRIRYLPKGFLNQFTEDKPTLNFFYQQVKNDYMLEIADQVDQEIALKLGCLEIRRSYGEMRGNALEKKSNYEVLEKDVGLRRFFPKSLLDSVKAKTLRKLIQQTFRQFANLNREESILKFFEILSPVYRFDKECFKCALGSSWIISVELAIGPEEGISYLTDKGANPTHLADFNQVQTIQYSNSEDKDRKGMLQLKIAGAPEPLTVTAPSLTIAENMADLIDGYCRLVNGATQSFIIRPQKEGERALPSIPKLANNEKQGVRSHTVSVSETDDYAEIIDEEDTYTMPSTRDYEIQRERIELGRCIGEGQFGDVHQGIYMSPENPAMAVAIKTCKNCTSDSVREKFLQEALTMRQFDHPHIVKLIGVITENPVWIIMELCTLGELRSFLQVRKFSLDLASLILYAYQLSTALAYLESKRFVHRDIAARNVLVSATDCVKLGDFGLSRYMEDSTYYKASKGKLPIKWMAPESINFRRFTSASDVWMFGVCMWEILMHGVKPFQGVKNNDVIGRIENGERLPMPPNCPPTLYSLMTKCWAYDPSRRPRFTELKAQLSTILEEEKLQQEERMRMESRRQVTVSWDSGGSDEAPPKPSRPGYPSPRSSEGFYPSPQHMVQPNHYQVSGYSGSHGIPAMAGSIYPGQASLLDQTDSWNHRPQEVSAWQPNMEDSGTLDVRGMGQVLPTHLMEERLIRQQQEMEEDQRWLEKEERFLVMKPDVRLSRGSIEREDGGLQGPAGNQHIYQPVGKPDHAAPPKKPPRPGAPHLGSLASLNSPVDSYNEGVKIKPQEISPPPTANLDRSNDKVYENVTGLVKAVIEMSSKIQPAPPEEYVPMVKEVGLALRTLLATVDESLPVLPASTHREIEMAQKLLNSDLAELINKMKLAQQYVMTSLQQEYKKQMLTAAHALAVDAKNLLDVIDQARLKMISQSRPH

Variants of: B1
Conditions: with arp3_bovin ACTR3, P61157

| Variant | effect of a mutation on the interaction |
| --- | --- |
| Y397F | increasing interaction |
